This assay deals with Flag-EGFR purified from 293T cells (UniProt P00533 25-1210). Put plainly: co-IP.

B1: His-CDC34 (enzyme)
chain: MARPLVPSSQKALLLELKGLQEEPVEGFRVTLVDEGDLYNWEVAIFGPPNTYYEGGYFKARLKFPIDYPYSPPAFRFLTKMWHPNIYETGDVCISILHPPVDDPQSGELPSERWNPTQNVRTILLSVISLLNEPNTFSPANVDASVMYRKWKESKGKDREYTDIIRKQVLGTKVDAERDGVKVPTTLAEYCVKTKAPAPDEGSDLFYDDYYEDGEVEEEADSCFGDDEDDSGTEES
For B1, the binding result is “binds”.

The record behind these values is paper PMC7047192 (EBioMedicine, 2020).
